# Source: patent publication EP4631972A1, “SITE-SPECIFIC COUPLED PEGYLATED INTERLEUKIN-2 MUTANT WITH RECEPTOR AFFINITY PREFERENCE AND USE THEREOF” (priority 2022, dated 2024)
# B1: 80K-1PEG-IL2-N88R-N77C: IL-2 mutant N88R, N77C, conjugation site 77, PEG molecular weight 80kD (conjugate)
# chain: APTSSSTKKTQLQLEHLLLDLQMILNGINNYKNPKLTRMLTFKFYMPKKATELKHLQCLEEELKPLEEVLNLAQSKC(PEG 80 kDa)FHLRPRDLISRINVIVLELKGSETTFMCEYADETATIVEFLNRWITFSQSIISTLT
# Key:
# [1] = Pharmacokinetic study in mice, single administration, plasma concentration by ELISA; details: 1 mg/kg s.c. single administration
# Procedure: (§1) Balb/c mice were purchased, with 4 mice in each group. Each IL-2 mutant to be tested was administered subcutaneously once at a dose of 1 mg/kg. Blood was collected from the orbit at different time points after administration, and the plasma was separated and the plasma drug concentration was detected by ELISA. The main pharmacokinetic parameters were calculated, and C-T curve was plotted.
# Treg cells = test: Pharmacodynamic (PD) study in mice, peripheral Treg cells; format: in vivo, Balb/c mice; details: 1 mg/kg s.c. single administration
# Procedure: In this example, the pharmacodynamics (PD) of each IL-2 mutant obtained in Example 6 was studied in mice after a single administration to mice. SPF grade Balb/c mice were purchased and randomly divided into groups according to body weight, with 3 mice in each group. Drug administration started on the day of grouping. The dosing and grouping information is shown in Table 9, where G1-G5 were administered once, G6 and G7 were administered once a day, for a total of three doses. 30 µl of blood was taken from each group of mice, for PEGylated IL2 mutants and the negative control, blood was collected on day 0 (pre-administration), day 2, 3, 4, 5, 6 and 7 (only for G3, G4 and G5), and for IL2 and IL2-N88R, blood was collected on day 0 (pre-administration), day 1, 2 and 3. The number of each cell subpopulation was measured by flow cytometry. Antibodies against the staining marker used in flow cytometry are shown in Table 10, and the gating settings are shown in Table 11. Table 9 Dosing and grouping table for single-dose PD study in mice
# [2] = Effects on body weight and physiological characteristics of mice; details: 1 mg/kg s.c. once every three days, three times
# Procedure: SPF grade Balb/c mice were purchased, with 3 mice in each group. Administration was started on the day of grouping. The test substance or PBS (negative control group) was administered subcutaneously at a dose of 1 mg/kg, once every three days, for a total of three times. The mice were weighed before each administration and three days after the third administration .
# [3] = mouse, in vivo, sc, 1 mg/kg
# Procedure: as §1
molecule,measurement,setting,value
B1,AUC inf,[1],463.63062 ± 37.7282 µg·h/mL
same,AUClast,[1],437.8594 ± 41.0906 µg·h/mL
same,CL,[1],2.17±0.18
same,Cmax,[1],8418.72 ± 491.4 ng/mL
same,MRT,[1],40.08 ± 2.1 h
same,Tmax,[1],24 h
same,mean half-life,[1],25.23 h
same,mean residence time (MRT),[1],40.08 h
same,"activation peak of Treg proportion, time",Treg cells,6 days
same,increase in Treg proportion at peak,Treg cells,about 15 fold
same,toxic side effects on mice,[2],less toxic side effects
same,visual observation of the mice,[2],in good condition
same,body weight compared with negative control,[2]; three days after the third dose,not significantly different from that of the negative control
same,T1/2,[3],25.23 ± 3.45 h
